According to patent US20030064061A1, “Bcr-Abl oligomerization domain polypeptides and uses therefor” (Whitehead Institute for Biomedical Research, priority 2001, published 2003):
Changes are numbered by the printed parent chain.

Assays:
[1] = Circular dichroism thermal denaturation; type: physicochemical; conditions: stable α-helical structure, PBS pH 7.4, heated from 0-98° C.
Description: Circular dichroism experiments were performed on an Aviv 62A DS circular dichroism spectrometer. Measurements from […] were performed in a 10 μM solution of protein sample in PBS (50 mM Na phosphate, 150 mM NaCl, pH 7.4) in a 1-mm path-length cuvette. Thermal denaturation was performed in a 10 mm path-length cuvette and samples were heated from 0-98° C., with equilibration times of 2 minutes and an averaging time of 1 minute. Protein concentrations were determined by absorbance at 280 nm in 20 mM phosphate-buffered 6M guanidine-hydrochloride (pH 6.5) (H. Edelhoch, Biochemistry 6, 1948-54 (1967)).

[2] = Solubility in physiological buffers; type: physicochemical
Bcr-Abl = target: T1, Bcr-Abl (Homo sapiens, UniProt P00519+P11274); conditions: literature reports (Guo 1998; Wu 1999); cited from earlier work
T1 construct: c-Abl portion (ABL1, fusion partner)
T1 sequence (P11274 1-426 limits assumed): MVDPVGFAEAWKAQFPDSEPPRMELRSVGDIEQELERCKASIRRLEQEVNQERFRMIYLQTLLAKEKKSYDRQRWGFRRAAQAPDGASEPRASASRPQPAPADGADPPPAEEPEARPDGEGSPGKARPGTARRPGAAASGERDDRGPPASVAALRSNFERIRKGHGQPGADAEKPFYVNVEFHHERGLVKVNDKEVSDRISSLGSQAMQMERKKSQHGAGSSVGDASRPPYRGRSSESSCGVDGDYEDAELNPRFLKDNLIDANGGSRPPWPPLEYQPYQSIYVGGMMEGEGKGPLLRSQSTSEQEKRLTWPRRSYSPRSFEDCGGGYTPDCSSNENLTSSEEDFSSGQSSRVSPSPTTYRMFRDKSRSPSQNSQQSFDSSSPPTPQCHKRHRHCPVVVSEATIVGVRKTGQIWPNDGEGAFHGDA

[3] = system: Bcr-Abl transformation of Rat-1 fibroblasts; experiment: Rat-1 focus-formation assay; type: cell-based; conditions: Rat-1 fibroblasts cotransfected with MIG-P210 and increasing doses of plasmid B74; foci counted after 3 weeks
Description: FIG. 5 is a graphic representation of results of a Rat-1 focus-formation assay. Data shown are the average of three dishes and are representative of four independent experiments. Error bars indicate the standard deviation of foci numbers between the experiments.
Whether the Bcr-Abl oligomerization domain inhibits full-length Bcr-Abl oligomerization in a dominant-negative manner was assessed. […] The total number of transformed foci was quantified after 3 weeks. Transected cultures were stained with 0.4% crystal violet to better visualize transformed foci.
For expression in mammalian cells, Bcr1-74 fragments were PCR amplified from pMBP/Bcr1-74 (with the optimal E. coli codons) as mentioned above, and inserted into the retroviral expression vector pMX-IRES-GFP (X. Liu et al., Anal Biochem 280, 20-28 (2000)) using BamHI and NotI sites. The resulting plasmid was denoted p74-IES-GFP (B74). Although it has been reported that the Bcr oligomerization domain as contained in residues 1-71 (SEQ ID NO: 19; SEQ ID NO: 20) of the Bcr protein cannot be stably expressed in mammalian cells (C. L. Sawyers, N Engl J Med 340, 1330-40 (1999)), a fair amount of Bcr1-74 (SEQ ID NO: 7) protein was detected by Western blotting when B74 was expressed in vivo. It is possible that use of E. coli-optimized codons improved expression in this domain. […] The total number of transformed foci was counted after 3 weeks.

[4] = target: Bcr1-72C38A (Bcr-Abl oligomerization domain, residues 1-72 of human Bcr, Cys38 mutated to Ala), monomer chain (human); experiment: X-ray crystal structure, interface analysis
[5] = target: Bcr1-72C38A (Bcr-Abl oligomerization domain, residues 1-72 of human Bcr, Cys38 mutated to Ala), monomer chain (human); experiment: X-ray crystal structure, buried surface
[6] = target: Bcr1-72C38A dimer (domain-swapped antiparallel coiled-coil dimer seen in the crystal) (human); experiment: X-ray crystal structure, buried surface

## Ac-DIEQELERCKASIRRLEQEVNQERFRMIYLQTLLAK-NH2 [Bcr30-65]
[1]
  midpoint of thermal denaturation (Tm): 60 °C
[2]
  solubility in physiological buffers: poor solubility

B1: full-length Bcr: Full-length human Bcr protein, 1271 amino acids (literature) (protein, UniProt P11274 1-1271, looked up)
chain: MVDPVGFAEAWKAQFPDSEPPRMELRSVGDIEQELERCKASIRRLEQEVNQERFRMIYLQTLLAKEKKSYDRQRWGFRRAAQAPDGASEPRASASRPQPAPADGADPPPAEEPEARPDGEGSPGKARPGTARRPGAAASGERDDRGPPASVAALRSNFERIRKGHGQPGADAEKPFYVNVEFHHERGLVKVNDKEVSDRISSLGSQAMQMERKKSQHGAGSSVGDASRPPYRGRSSESSCGVDGDYEDAELNPRFLKDNLIDANGGSRPPWPPLEYQPYQSIYVGGMMEGEGKGPLLRSQSTSEQEKRLTWPRRSYSPRSFEDCGGGYTPDCSSNENLTSSEEDFSSGQSSRVSPSPTTYRMFRDKSRSPSQNSQQSFDSSSPPTPQCHKRHRHCPVVVSEATIVGVRKTGQIWPNDGEGAFHGDADGSFGTPPGYGCAADRAEEQRRHQDGLPYIDDSPSSSPHLSSKGRGSRDALVSGALESTKASELDLEKGLEMRKWVLSGILASEETYLSHLEALLLPMKPLKAAATTSQPVLTSQQIETIFFKVPELYEIHKEFYDGLFPRVQQWSHQQRVGDLFQKLASQLGVYRAFVDNYGVAMEMAEKCCQANAQFAEISENLRARSNKDAKDPTTKNSLETLLYKPVDRVTRSTLVLHDLLKHTPASHPDHPLLQDALRISQNFLSSINEEITPRRQSMTVKKGEHRQLLKDSFMVELVEGARKLRHVFLFTDLLLCTKLKKQSGGKTQQYDCKWYIPLTDLSFQMVDELEAVPNIPLVPDEELDALKIKISQIKNDIQREKRANKGSKATERLKKKLSEQESLLLLMSPSMAFRVHSRNGKSYTFLISSDYERAEWRENIREQQKKCFRSFSLTSVELQMLTNSCVKLQTVHSIPLTINKEDDESPGLYGFLNVIVHSATGFKQSSNLYCTLEVDSFGYFVNKAKTRVYRDTAEPNWNEEFEIELEGSQTLRILCYEKCYNKTKIPKEDGESTDRLMGKGQVQLDPQALQDRDWQRTVIAMNGIEVKLSVKFNSREFSLKRMPSRKQTGVFGVKIAVVTKRERSKVPYIVRQCVEEIERRGMEEVGIYRVSGVATDIQALKAAFDVNNKDVSVMMSEMDVNAIAGTLKLYFRELPEPLFTDEFYPNFAEGIALSDPVAKESCMLNLLLSLPEANLLTFLFLLDHLKRVAEKEAVNKMSLHNLATVFGPTLLRPSEKESKLPANPSQPITMTDSWSLEVMSQVQVLLYFLQLEAIPAPDSKRQSILFSTEV
modifications: full-length
Bcr-Abl
  Bcr-Abl transformation: inhibit Bcr-Abl transformation

B2: Bcr1-74: Residues 1-74 of human Bcr; expressed in Rat-1 cells from retroviral plasmid B74 (p74-IRES-GFP) (protein, UniProt P11274 1-74, looked up, fragment)
chain: MVDPVGFAEAWKAQFPDSEPPRMELRSVGDIEQELERCKASIRRLEQEVNQERFRMIYLQTLLAKEKKSYDRQR
[3]
  transforming potential of Bcr-Abl (number of transformed foci): inhibited the transforming potential of Bcr-Abl

B3: Bcr1-72C38A (Bcr-Abl oligomerization domain, residues 1-72 of human Bcr, Cys38 mutated to Ala), monomer chain (protein, UniProt P11274 1-72 with C38A, looked up)
chain: MVDPVGFAEAWKAQFPDSEPPRMELRSVGDIEQELERAKASIRRLEQEVNQERFRMIYLQTLLAKEKKSYDR
modifications: oligomerization domain residues 1-72 selenomethionine form also used
[4]
  hydrogen bonds in the dimer interface (hydrogen bonds): 3
  salt bridges in the dimer interface: 7 salt bridges
  van der Waals contacts in the dimer interface (radius cutoff 4 Å): 217 contacts
[5]
  solvent-accessible surface buried upon dimer formation: 4200 Å^2

B4: Bcr1-72C38A dimer (domain-swapped antiparallel coiled-coil dimer seen in the crystal) (protein, UniProt P11274 1-72 with C38A, looked up)
chain: B3 chain
modifications: oligomerization domain residues 1-72, homodimer
[6]
  solvent-accessible surface buried upon association of two dimers: 3400 Å^2

B5: Bcr1-72: Recombinant wild-type polypeptide, residues 1-72 of the N-terminus of human Bcr (oligomerization domain) (protein, UniProt P11274 1-72, looked up, fragment)
chain: B3 chain with A38C
[1]
  midpoint of thermal denaturation (Tm): 84 °C

B6: N-terminal 160 amino acids of Bcr: N-terminal 160 amino acids of Bcr, which contain the oligomerization domain (literature) (protein, UniProt P11274 1-160, looked up, fragment)
chain: MVDPVGFAEAWKAQFPDSEPPRMELRSVGDIEQELERCKASIRRLEQEVNQERFRMIYLQTLLAKEKKSYDRQRWGFRRAAQAPDGASEPRASASRPQPAPADGADPPPAEEPEARPDGEGSPGKARPGTARRPGAAASGERDDRGPPASVAALRSNFER
Bcr-Abl
  Bcr-Abl transformation: inhibit Bcr-Abl transformation
